Results on one molecule are retold here after publication doi:10.1101/2024.09.27.615457 (bioRxiv, 2024).

For this assay, the target named is T1, MBP-tagged bHLH107 (Arabidopsis, UniProt Q9LET0 1-230).
T1 sequence (looked up): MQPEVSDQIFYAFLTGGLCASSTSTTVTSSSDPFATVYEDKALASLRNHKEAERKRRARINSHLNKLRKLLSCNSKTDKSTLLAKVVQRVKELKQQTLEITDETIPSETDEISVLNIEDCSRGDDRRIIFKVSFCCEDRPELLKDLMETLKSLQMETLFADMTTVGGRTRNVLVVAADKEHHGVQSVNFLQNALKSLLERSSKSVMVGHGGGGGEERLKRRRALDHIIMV
The assay can be described thus: pull-down.

B1: His-tagged HY5 (natural protein, Arabidopsis, UniProt O24646 1-168, looked up)
chain: MQEQATSSLAASSLPSSSERSSSSAPHLEIKEGIESDEEIRRVPEFGGEAVGKETSGRESGSATGQERTQATVGESQRKRGRTPAEKENKRLKRLLRNRVSAQQARERKKAYLSELENRVKDLENKNSELEERLSTLQNENQMLRHILKNTTGNKRGGGGGSNADASL
Turning to B1, the binding result is “binds”.
